Data set [1] addresses purified C-terminal region (residues 182–226) of SAO-1 (ITC) (C. elegans). Briefly: ITC; 25 °C; 50 mM Tris-Cl pH 7.5, 100 mM NaCl; 400 μM DLC-1 injected into 40 μM SAO-1; 13 titrations; one-site binding model.
Data set [2] addresses SAO-1C1(182-205) peptide (crystal) (C. elegans). Briefly: crystal structure; sitting drop vapor diffusion at 16 °C; 0.2 M potassium chloride, 0.05 M HEPES pH 7.5, 35% pentaerythritol propoxylate; 2.4 Å.
The target in data set [3] is SAO-1::RFP (C. elegans). The data set can be described thus: FRET or BRET; fluorescence lifetime imaging (FLIM) of the GFP donor in live adult worms; TCSPC.
Data set [4] deals with the molecule itself. Briefly: crystal structure; sitting drop vapor diffusion at 16 °C; 0.2 M potassium chloride, 0.05 M HEPES pH 7.5, 35% pentaerythritol propoxylate; 2.4 Å.
For data set [5], the target named is T1, Trx-His6-DLC-1, Q22799.
T1 chain: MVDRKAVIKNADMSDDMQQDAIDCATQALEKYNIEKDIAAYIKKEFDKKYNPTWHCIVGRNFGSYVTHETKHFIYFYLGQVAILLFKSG
Briefly: pull-down (GST pull-down, Western blot with His antibody, band quantification). To be noted: chain shown with the change;; parent: est. 1.0; read off a plot.

Changes are numbered by the printed parent chain. Names and notes keep the numbering of the source.

On to “full-length DLC-1 (ITC and crystallography) (from UniProt Q22799 1-89) (natural protein)”, for which, in data set [1], the Kd was found to be 500 nM and the stoichiometry N (DLC-1 per SAO-1) turned out to be 2. The stoichiometry N (DLC-1 per SAO-1) in data set [2] amounted to 2.

“DLC-1::GFP (from UniProt Q22799 1-89) (natural protein)”: the GFP mean fluorescence lifetime (τ) with SAO-1::RFP in data set [3] is 2.85 ns.

B1: full-length DLC-1 (ITC and crystallography) (natural protein, C. elegans, UniProt Q22799 1-89, looked up)
chain: T1 chain
notes: dynein light chain 1 (DLC-1), C. elegans; Same construct as m1; Forms dimers in the crystal
Turning to B1, the binding result in data set [4] is recorded as “binds”.

B2: GST-SAO-1 V187A; T189A (protein)
chain: MHKNGNNGPVIDTKWHYLGPDSEKYGPYMSKDMLFWLQAGYFNDGLQLKTENEPNYHTLGEWSQLLGTHPFSMPVHSLDATIAQMNSMRPHGAMMMVPPGLQNQFQPPMPMRFPPFLPMPLLHQMNQNGPPMGAQMHSQPPSEPIDAGSLSHTPDSENEFQGHGRKPHHHQQILAHQHIPQMQHANAAADQVVMKSVECQTEPVEISKEQASRVLSELLGQMVIIN
Turning to B2, the ratio to parent in data set [5] is 0.57.

B3: GST-SAO-1 C199A; Q200A; T201A (protein)
chain: B2 chain with A187V, A189T, C199A, Q200A, T201A
In the case of B3, the ratio to parent in data set [5] came out at 0.15.

These data come from article PMC9630320, “Interaction between DLC-1 and SAO-1 facilitates CED-4 translocation during apoptosis in the Caenorhabditis elegans germline” (Cell Death Discovery, 2022).
